Measurements from patent US20090143308A1.

How the values were obtained:
Experiment in all cases: cell-based or functional assay
[1] = target: Candida albicans Cdr1p as expressed in S. cerevisiae AD1002 (CDR1 of plasmid pKEN1002) (Candida albicans) (UniProt P43071)
[2] = target: S. cerevisiae plasma membrane H+-ATPase (Pma1p) (Saccharomyces cerevisiae) (UniProt P05030)
[3] = target: Saccharomyces cerevisiae Pdr5p (over-expressed in strain AD124567) (Saccharomyces cerevisiae) (UniProt P33302)
Saccharomyces cerevisiae Pdr5p (over-expressed in strain AD124567) (Saccharomyces cerevisiae), sequence (P33302 whole entry): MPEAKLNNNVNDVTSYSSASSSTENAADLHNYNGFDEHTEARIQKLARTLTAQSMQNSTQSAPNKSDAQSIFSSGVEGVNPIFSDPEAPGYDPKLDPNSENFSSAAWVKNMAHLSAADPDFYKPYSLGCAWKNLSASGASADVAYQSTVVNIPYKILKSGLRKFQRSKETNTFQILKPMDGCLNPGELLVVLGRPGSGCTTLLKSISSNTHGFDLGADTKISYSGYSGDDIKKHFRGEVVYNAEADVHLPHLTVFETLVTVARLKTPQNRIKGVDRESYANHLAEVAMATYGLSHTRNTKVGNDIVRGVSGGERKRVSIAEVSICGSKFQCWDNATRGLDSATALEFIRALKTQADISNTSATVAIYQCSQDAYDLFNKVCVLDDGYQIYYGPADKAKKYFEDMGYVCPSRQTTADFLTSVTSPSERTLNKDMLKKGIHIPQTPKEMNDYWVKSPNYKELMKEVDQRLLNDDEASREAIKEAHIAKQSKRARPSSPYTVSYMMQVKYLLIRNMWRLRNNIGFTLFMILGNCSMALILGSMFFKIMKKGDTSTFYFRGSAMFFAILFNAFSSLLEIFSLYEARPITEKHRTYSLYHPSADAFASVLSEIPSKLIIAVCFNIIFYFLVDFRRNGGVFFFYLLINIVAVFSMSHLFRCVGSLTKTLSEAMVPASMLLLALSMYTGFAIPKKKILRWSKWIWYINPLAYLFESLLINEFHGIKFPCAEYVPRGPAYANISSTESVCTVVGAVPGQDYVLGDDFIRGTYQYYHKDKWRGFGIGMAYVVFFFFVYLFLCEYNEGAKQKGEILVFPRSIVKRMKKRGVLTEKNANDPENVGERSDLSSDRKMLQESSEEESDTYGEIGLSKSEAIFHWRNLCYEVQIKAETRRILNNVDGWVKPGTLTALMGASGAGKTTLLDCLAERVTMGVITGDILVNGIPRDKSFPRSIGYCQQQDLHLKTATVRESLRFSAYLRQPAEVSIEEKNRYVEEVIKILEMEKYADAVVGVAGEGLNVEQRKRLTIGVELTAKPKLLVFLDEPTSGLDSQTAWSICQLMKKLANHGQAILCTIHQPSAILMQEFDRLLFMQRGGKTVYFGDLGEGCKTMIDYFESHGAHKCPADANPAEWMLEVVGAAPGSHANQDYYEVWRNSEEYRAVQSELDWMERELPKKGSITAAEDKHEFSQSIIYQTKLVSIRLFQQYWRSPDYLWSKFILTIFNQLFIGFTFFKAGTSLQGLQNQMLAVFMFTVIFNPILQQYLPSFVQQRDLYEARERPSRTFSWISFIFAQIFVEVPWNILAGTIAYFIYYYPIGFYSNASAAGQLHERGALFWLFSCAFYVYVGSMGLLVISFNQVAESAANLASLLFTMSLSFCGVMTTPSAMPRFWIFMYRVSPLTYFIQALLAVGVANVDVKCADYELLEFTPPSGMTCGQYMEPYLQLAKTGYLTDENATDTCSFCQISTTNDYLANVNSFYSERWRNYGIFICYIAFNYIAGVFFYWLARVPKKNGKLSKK

Candida albicans Cdr1p as expressed in S. cerevisiae AD1002 (CDR1 of plasmid pKEN1002) (Candida albicans), sequence (P43071 whole entry): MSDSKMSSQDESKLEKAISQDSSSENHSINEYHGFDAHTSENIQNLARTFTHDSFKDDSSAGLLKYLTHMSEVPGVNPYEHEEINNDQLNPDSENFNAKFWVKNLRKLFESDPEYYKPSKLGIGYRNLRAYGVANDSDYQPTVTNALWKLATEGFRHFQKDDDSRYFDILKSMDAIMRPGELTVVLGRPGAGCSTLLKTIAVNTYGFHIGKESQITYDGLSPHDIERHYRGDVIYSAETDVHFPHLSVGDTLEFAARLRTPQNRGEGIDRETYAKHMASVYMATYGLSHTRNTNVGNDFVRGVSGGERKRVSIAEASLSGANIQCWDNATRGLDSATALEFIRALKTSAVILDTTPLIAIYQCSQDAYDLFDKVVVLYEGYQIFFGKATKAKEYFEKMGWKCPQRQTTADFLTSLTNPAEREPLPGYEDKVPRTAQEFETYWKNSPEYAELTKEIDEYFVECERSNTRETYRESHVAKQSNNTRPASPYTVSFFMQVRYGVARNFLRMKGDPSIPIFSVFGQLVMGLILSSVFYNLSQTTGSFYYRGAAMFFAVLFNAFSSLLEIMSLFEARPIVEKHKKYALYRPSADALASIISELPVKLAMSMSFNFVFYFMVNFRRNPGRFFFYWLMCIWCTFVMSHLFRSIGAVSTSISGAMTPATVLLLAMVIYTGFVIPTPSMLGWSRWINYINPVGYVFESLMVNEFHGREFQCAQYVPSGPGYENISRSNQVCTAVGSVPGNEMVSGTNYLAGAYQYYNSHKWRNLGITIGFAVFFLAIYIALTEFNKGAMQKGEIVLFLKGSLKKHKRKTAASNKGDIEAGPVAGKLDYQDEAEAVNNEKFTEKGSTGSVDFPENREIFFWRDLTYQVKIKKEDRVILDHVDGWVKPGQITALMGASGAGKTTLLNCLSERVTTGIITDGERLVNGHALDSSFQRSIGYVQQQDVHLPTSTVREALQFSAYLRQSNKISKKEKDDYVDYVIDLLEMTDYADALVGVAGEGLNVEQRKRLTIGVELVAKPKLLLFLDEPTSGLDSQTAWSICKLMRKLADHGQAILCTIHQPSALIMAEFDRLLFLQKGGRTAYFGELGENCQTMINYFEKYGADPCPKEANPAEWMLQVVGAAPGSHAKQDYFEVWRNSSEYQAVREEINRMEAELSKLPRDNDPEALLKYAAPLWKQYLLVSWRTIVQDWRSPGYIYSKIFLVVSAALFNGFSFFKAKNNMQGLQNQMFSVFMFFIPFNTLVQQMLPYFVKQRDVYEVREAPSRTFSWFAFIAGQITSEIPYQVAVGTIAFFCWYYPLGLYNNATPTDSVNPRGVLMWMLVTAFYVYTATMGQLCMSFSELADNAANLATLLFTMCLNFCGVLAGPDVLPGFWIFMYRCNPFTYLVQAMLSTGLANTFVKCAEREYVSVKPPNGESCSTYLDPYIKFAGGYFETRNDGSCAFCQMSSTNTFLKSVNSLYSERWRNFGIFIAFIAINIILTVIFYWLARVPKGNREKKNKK
S. cerevisiae plasma membrane H+-ATPase (Pma1p) (Saccharomyces cerevisiae), sequence (P05030 whole entry): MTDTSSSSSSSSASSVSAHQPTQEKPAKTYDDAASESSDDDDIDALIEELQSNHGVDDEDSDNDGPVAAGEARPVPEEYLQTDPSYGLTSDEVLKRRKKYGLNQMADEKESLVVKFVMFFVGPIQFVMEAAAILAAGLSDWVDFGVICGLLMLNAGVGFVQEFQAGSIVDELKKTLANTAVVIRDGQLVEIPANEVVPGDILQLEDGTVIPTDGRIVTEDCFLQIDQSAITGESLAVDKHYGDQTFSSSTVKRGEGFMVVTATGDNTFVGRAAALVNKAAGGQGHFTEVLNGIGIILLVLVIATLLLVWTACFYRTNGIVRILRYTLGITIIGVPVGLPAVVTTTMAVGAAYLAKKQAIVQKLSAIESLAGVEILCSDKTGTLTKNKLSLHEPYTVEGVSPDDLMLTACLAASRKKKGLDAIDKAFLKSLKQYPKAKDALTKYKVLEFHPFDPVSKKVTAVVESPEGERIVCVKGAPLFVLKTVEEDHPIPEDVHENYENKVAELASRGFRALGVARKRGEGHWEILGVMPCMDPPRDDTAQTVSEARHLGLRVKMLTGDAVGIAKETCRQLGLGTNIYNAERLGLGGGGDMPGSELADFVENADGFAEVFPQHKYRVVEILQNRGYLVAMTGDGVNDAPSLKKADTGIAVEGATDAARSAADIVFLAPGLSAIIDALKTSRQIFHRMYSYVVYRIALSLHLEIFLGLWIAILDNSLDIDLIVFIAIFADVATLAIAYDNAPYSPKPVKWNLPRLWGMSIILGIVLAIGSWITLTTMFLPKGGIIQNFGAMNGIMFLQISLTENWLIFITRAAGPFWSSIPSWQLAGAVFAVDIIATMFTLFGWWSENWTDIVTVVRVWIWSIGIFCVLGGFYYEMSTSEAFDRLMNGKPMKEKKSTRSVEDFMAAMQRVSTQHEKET

## KN20 (D-NH2-asparagine-tryptophan-tryptophan-lysine-valine-arginine-arginine-arginine-CONH2 with a single Mtr substituent) (peptide)
[1]
  fold higher inhibitory concentration for Cdr1p ATPase than for Pdr5p ATPase: 2.7 fold
  inhibition of oligomycin sensitive ATPase activity of AD1002 plasma membranes (I50): 8 µM
[2]
  inhibition of S. cerevisiae plasma membrane H+-ATPase (I50): 10 µM
[3]
  inhibition of oligomycin sensitive ATPase activity of plasma membranes from the AD124567 yeast strain overexpressing Pdr5p (I50): 3 µM
